# Reference: publication PMC1820849, “Identification of a Small TAF Complex and Its Role in the Assembly of TAF-Containing Complexes” (PLoS ONE, 2007)
# T1: YFP-TAF9 (UniProt Q16594 1-264)
# T1 construct: TAF9 as a YFP fusion; the construct is not described; source: HeLa cells, transfected, in living cells
# T1 sequence (looked up): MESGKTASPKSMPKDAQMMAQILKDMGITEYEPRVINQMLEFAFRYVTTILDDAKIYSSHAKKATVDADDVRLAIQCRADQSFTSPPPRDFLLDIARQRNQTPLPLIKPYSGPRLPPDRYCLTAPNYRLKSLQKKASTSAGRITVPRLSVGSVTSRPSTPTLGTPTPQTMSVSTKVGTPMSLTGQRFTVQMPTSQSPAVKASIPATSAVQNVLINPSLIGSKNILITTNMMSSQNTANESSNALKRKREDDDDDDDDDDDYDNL
# T2: YFP-SPT7L (human, UniProt O94864 1-414)
# T2 construct: human SPT7L as a YFP fusion; vector described in earlier work; source: HeLa cells, transfected, in living cells
# T2 sequence (looked up): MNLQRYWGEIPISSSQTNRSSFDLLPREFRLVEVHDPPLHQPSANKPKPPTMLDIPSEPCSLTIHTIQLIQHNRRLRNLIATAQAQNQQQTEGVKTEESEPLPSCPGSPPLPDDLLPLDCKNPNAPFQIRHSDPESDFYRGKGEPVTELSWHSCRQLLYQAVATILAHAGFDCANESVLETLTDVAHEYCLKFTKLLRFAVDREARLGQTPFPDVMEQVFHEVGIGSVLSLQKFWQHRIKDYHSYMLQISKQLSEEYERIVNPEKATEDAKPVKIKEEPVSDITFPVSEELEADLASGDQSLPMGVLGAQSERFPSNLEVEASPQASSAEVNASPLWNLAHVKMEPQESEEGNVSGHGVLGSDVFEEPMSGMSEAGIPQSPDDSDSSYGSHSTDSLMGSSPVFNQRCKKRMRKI
# What was measured:
# Assay in all cases: FRET or BRET; sensitized emission FRET in the nucleus of living HeLa cells transfected with CFP and YFP fusion vectors; mean FRET efficiency of cells above a 5% threshold
# Details in all cases: partners not purified
# [1] = target: T1, YFP-TAF9
# [2] = target: T3, YFP-TAF10 (human, UniProt Q12962 1-218)
# T3 construct: human TAF10 as a YFP fusion; vector described in earlier work; source: HeLa cells, transfected, in living cells
# T3 sequence (Q12962 whole entry, the tested form may be a part): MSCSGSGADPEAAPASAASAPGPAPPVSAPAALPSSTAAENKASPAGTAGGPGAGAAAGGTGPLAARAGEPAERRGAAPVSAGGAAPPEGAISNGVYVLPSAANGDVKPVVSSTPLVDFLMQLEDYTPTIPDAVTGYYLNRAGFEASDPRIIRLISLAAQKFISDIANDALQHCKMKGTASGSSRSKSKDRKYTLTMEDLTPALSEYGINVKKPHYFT
# [3] = target: T2, YFP-SPT7L
Binder,FRET efficiency [1],FRET efficiency [2],FRET efficiency [3]
"CFP-TAF6 (natural protein, TAF6 as a CFP fusion; the construct is not described; source: HeLa cells, transfected, in living cells) not shown",27.1%,,
"CFP-TAF8 (natural protein, UniProt Q7Z7C8 1-310, looked up, TAF8 as a CFP fusion; vector described in earlier work; source: HeLa cells, transfected, in living cells) MADAAATAGAGGSGTRSGSKQSTNPADNYHLARRRTLQVVVSSLLTEAGFESAEKASVETLTEMLQSYISEIGRSAKSYCEHTARTQPTLSDIVVTLVEMGFNVDTLPAYAKRSQRMVITAPPVTNQPVTPKALTAGQNRPHPPHIPSHFPEFPDPHTYIKTPTYREPVSDYQVLREKAASQRRDVERALTRFMAKTGETQSLFKDDVSTFPLIAARPFTIPYLTALLPSELEMQQMEETDSSEQDEQTDTENLALHISMEDSGAEKENTSVLQQNPSLSGSRNGEENIIDNPYLRPVKKPKIRRKKSLS",,16.9%,15.8%
